Measured values published in IntAct's records for PubMed 23892456.

Tests used:
nanog_mouse Nanog [1] = biological target: nanog_mouse Nanog (UniProt Q80Z64)
nanog_mouse Nanog [2] = biological target: nanog_mouse Nanog (UniProt Q80Z64); remark: listed apart in the source
nanog_mouse Nanog [3] = biological target: nanog_mouse Nanog (UniProt Q80Z64); remark: listed apart in the source

nanog_mouse Nanog, sequence (Q80Z64 whole entry): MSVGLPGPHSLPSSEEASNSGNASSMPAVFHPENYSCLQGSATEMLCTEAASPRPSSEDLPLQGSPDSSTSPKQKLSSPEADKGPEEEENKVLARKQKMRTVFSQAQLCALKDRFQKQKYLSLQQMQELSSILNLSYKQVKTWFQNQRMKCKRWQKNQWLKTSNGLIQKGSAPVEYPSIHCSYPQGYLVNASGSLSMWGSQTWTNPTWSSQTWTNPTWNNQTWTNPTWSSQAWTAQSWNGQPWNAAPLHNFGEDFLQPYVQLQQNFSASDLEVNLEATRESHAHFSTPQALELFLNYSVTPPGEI
Transcription factor SOX-2 (Mus musculus), P48432 S228A, sequence (P48432 whole entry S228A): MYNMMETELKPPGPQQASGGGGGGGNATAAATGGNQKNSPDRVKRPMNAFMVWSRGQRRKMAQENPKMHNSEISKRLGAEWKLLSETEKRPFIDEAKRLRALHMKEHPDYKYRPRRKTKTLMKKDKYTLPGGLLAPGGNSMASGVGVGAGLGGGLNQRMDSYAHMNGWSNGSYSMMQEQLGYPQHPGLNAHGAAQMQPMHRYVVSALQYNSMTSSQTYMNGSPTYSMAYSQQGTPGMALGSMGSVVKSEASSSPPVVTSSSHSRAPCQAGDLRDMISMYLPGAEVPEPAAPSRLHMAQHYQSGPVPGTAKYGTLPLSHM
Transcription factor SOX-2 (Mus musculus), P48432 T217A, sequence (P48432 whole entry T217A): as the sequence (P48432 whole entry S228A) above, with T217A, A228S counted along it
Transcription factor SOX-2 (Mus musculus), P48432 T224A, sequence (P48432 whole entry T224A): as the sequence (P48432 whole entry S228A) above, with T224A, A228S counted along it
Transcription factor SOX-2 (Mus musculus), P48432 T217A;T224A;S228A, sequence (P48432 whole entry T217A/T224A/S228A): as the sequence (P48432 whole entry S228A) above, with T217A, T224A counted along it

Transcription factor SOX-2 (Mus musculus), P48432 S228A
effect of a mutation on the interaction (nanog_mouse Nanog [1]): disrupting interaction

Transcription factor SOX-2 (Mus musculus), P48432 T217A
effect of a mutation on the interaction (nanog_mouse Nanog [2]): disrupting interaction

Transcription factor SOX-2 (Mus musculus), P48432 T217A;T224A;S228A
effect of a mutation on the interaction (nanog_mouse Nanog [3]): disrupting interaction

Transcription factor SOX-2 (Mus musculus), P48432 T224A
effect of a mutation on the interaction (nanog_mouse Nanog [1]): disrupting interaction
